Experimental data: patent publication US20200262877A1, “ION CHANNEL-BINDING PEPTIDES AND METHODS OF USE THEREOF” (priority 2017, published 2020)

Columns and labels:
5HT3a = target: T1, 5HT3a (Homo sapiens, UniProt P46098); test: Ion channel panel (IonWorks Barracuda): 5HT3a; format: cell-based
T1 construct: host or cells: HEK293 or CHO
T1 sequence (P46098 whole entry, looked up): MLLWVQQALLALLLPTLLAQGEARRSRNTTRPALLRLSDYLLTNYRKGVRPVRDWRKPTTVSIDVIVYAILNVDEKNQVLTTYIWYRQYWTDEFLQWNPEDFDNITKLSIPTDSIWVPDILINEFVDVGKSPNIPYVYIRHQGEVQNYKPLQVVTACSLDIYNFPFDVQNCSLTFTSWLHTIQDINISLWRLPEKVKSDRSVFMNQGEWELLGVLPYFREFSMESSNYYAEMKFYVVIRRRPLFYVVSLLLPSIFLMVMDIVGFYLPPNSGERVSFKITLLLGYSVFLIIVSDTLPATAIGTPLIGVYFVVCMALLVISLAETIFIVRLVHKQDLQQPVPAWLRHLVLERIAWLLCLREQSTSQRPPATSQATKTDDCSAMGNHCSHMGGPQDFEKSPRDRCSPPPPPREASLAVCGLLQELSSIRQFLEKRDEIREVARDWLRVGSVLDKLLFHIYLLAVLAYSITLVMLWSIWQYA
Method in brief: (§1)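 Peptides were tested in duplicate at final 20 μM and 200 nM, with concentration set by amino acid analysis, in HEPES-buffered saline. They were applied for at least 5 min to HEK293 or CHO cells transfected with each channel. Currents were expressed as % inhibition, 1-(Ipeptide/Icontrol)×100, or % activation, Ipeptide/Icontrol×100, against a channel-matched reference compound.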

Nav1.7 = target: T2, Nav1.7 (Homo sapiens, UniProt Q15858); test: cell-based; format: cell-based; conditions: 100% = no change; for Activity of Nav1.7 with peptide, expressed as a percentage of the reference compound: peptide at 0.2 μM; for Activity of Nav1.7 with peptide (percentage of the reference compound): peptide at 20 μM
T2 construct: host or cells: HEK293 or CHO

α3β4 = target: T3, α3β4 (Homo sapiens, UniProt P30926+P32297); test: Ion channel panel (IonWorks Barracuda): α3β4; format: cell-based; conditions: 100% = no change, <100% = inhibition
T3 construct: host or cells: HEK293 or CHO
Method in brief: as §1

Kv1.3 = target: T4, Kv1.3 (Homo sapiens, UniProt P22001); test: cell-based; format: cell-based; conditions: 100% = no change, <100% = inhibition
T4 construct: host or cells: HEK293 or CHO
Method in brief: as §1

Kv1.2 = target: T5, Kv1.2 (Homo sapiens, UniProt P16389); test: cell-based; format: cell-based; conditions: 100% = no change, <100% = inhibition
T5 construct: host or cells: HEK293 or CHO
Method in brief: as §1

Kv1.1 = target: T6, Kv1.1 (Homo sapiens, UniProt Q09470); test: cell-based; format: cell-based; conditions: 100% = no change, <100% = inhibition
T6 construct: host or cells: HEK293 or CHO
Method in brief: as §1

α4β2 = target: T7, α4β2 (Homo sapiens, UniProt P17787+P43681); test: Ion channel panel (IonWorks Barracuda): α4β2; format: cell-based; conditions: 100% = no change, <100% = inhibition
T7 construct: host or cells: HEK293 or CHO
Method in brief: as §1

Kir2.1 = target: T8, Kir2.1 (Homo sapiens, UniProt P63252); test: Ion channel panel (IonWorks Barracuda): Kir2.1; format: cell-based; conditions: 100% = no change, <100% = inhibition
T8 construct: host or cells: HEK293 or CHO
Method in brief: as §1

hERG = hERG (Homo sapiens, UniProt Q12809); test: in vitro; conditions: 100% = no change, <100% = inhibition
Method in brief: as §1

Nav1.5 = Nav1.5 (Homo sapiens, UniProt Q14524); test: in vitro; conditions: 100% = no change; for Activity of Nav1.5 with peptide, expressed as a percentage of the reference compound: peptide at 0.2 μM; for Activity of Nav1.5 with peptide (percentage of the reference compound): peptide at 20 μM
Method in brief: as §1

TRPA1 = target: T9, TRPA1 (Homo sapiens, UniProt O75762); test: Ion channel panel (IonWorks Barracuda): TRPA1; format: cell-based; conditions: 100% = no change, <100% = inhibition
T9 construct: host or cells: HEK293 or CHO
Method in brief: as §1

NR2B = target: T10, NR2B (Homo sapiens, UniProt Q13224); test: Ion channel panel (IonWorks Barracuda): NR2B; format: cell-based; conditions: 100% = no change, <100% = inhibition
T10 construct: host or cells: HEK293 or CHO
Method in brief: as §1

Cav2.1 = target: T11, Cav2.1 (Homo sapiens, UniProt O00555); test: cell-based; conditions: 100% = no change, <100% = inhibition
T11 construct: host or cells: HEK293 or CHO
Method in brief: as §1

Kv2.1 = target: T12, Kv2.1 (Homo sapiens, UniProt Q14721); test: cell-based; conditions: 100% = no change, <100% = inhibition
T12 construct: host or cells: HEK293 or CHO
Method in brief: as §1

Cav2.2 = target: T13, Cav2.2 (Homo sapiens, UniProt Q00975); test: cell-based; conditions: 100% = no change, <100% = inhibition
T13 construct: host or cells: HEK293 or CHO
Method in brief: as §1

GABA = test: Ion channel panel (IonWorks Barracuda): GABA; format: cell-based; conditions: 100% = no change, <100% = inhibition
Method in brief: as §1

NR2A = target: T14, NR2A (Homo sapiens, UniProt Q12879); test: Ion channel panel (IonWorks Barracuda): NR2A; format: cell-based; conditions: 100% = no change, <100% = inhibition
T14 construct: host or cells: HEK293 or CHO
Method in brief: as §1

TRPV1 = target: T15, TRPV1 (Homo sapiens, UniProt Q8NER1); test: Ion channel panel (IonWorks Barracuda): TRPV1; format: cell-based; conditions: 100% = no change, <100% = inhibition
T15 construct: host or cells: HEK293 or CHO
Method in brief: as §1

[1] = first of two Nav1.7 columns (probably TP1)
[2] = second of two Nav1.7 columns (probably TP2)
[3] = first of two Nav1.5 columns (probably TP1)
[4] = second of two Nav1.5 columns (probably TP2)

T2 sequence (Q15858 whole entry): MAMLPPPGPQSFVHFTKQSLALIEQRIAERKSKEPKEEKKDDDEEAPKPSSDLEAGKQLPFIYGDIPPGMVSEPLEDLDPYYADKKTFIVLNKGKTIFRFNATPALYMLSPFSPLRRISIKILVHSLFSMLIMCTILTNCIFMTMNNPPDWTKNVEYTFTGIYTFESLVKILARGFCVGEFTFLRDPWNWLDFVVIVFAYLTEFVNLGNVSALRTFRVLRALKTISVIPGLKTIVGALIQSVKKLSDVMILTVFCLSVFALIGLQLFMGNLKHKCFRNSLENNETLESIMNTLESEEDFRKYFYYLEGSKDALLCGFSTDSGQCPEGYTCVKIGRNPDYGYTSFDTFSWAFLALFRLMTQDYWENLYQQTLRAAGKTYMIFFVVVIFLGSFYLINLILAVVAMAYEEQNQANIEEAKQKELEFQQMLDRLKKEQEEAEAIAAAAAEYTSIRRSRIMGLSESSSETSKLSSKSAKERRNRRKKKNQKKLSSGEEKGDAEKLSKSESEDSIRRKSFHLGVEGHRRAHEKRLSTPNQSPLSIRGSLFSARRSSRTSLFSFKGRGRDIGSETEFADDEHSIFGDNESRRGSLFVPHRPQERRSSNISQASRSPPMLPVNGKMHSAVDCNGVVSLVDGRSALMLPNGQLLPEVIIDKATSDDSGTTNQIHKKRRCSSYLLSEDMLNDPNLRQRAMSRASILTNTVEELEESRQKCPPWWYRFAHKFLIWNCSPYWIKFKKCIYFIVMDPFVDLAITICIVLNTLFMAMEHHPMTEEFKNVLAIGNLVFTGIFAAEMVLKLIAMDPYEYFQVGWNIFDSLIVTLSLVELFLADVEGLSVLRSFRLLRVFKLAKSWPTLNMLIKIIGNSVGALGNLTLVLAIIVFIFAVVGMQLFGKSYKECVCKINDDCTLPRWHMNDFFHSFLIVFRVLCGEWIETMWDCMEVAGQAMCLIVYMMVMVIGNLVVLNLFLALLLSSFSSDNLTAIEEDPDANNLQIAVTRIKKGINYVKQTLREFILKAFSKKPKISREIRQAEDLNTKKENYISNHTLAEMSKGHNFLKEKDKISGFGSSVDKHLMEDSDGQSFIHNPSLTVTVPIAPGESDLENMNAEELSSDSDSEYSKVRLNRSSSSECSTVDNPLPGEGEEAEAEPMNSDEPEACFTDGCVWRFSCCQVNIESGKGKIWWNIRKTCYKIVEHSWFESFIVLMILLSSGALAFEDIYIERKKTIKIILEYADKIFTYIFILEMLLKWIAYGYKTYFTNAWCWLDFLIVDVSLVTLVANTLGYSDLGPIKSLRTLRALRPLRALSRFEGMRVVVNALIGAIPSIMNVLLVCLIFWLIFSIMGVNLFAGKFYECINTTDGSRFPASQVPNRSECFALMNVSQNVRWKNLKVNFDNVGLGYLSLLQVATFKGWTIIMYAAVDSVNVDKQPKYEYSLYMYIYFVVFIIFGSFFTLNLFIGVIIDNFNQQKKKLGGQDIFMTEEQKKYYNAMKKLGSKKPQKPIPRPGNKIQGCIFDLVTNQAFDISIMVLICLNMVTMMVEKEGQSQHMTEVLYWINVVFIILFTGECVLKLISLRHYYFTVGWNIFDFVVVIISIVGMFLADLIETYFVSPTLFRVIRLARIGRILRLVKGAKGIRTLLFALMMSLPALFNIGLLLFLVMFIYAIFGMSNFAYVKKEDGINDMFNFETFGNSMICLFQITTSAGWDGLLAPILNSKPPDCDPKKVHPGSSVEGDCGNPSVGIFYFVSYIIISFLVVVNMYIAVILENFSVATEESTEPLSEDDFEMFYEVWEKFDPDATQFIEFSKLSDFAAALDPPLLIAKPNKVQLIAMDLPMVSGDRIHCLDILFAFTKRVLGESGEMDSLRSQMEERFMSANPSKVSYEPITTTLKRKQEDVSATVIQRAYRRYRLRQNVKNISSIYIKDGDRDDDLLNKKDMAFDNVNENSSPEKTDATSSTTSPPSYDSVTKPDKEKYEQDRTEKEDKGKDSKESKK
Chain of Nav1.5 (Q14524 whole entry): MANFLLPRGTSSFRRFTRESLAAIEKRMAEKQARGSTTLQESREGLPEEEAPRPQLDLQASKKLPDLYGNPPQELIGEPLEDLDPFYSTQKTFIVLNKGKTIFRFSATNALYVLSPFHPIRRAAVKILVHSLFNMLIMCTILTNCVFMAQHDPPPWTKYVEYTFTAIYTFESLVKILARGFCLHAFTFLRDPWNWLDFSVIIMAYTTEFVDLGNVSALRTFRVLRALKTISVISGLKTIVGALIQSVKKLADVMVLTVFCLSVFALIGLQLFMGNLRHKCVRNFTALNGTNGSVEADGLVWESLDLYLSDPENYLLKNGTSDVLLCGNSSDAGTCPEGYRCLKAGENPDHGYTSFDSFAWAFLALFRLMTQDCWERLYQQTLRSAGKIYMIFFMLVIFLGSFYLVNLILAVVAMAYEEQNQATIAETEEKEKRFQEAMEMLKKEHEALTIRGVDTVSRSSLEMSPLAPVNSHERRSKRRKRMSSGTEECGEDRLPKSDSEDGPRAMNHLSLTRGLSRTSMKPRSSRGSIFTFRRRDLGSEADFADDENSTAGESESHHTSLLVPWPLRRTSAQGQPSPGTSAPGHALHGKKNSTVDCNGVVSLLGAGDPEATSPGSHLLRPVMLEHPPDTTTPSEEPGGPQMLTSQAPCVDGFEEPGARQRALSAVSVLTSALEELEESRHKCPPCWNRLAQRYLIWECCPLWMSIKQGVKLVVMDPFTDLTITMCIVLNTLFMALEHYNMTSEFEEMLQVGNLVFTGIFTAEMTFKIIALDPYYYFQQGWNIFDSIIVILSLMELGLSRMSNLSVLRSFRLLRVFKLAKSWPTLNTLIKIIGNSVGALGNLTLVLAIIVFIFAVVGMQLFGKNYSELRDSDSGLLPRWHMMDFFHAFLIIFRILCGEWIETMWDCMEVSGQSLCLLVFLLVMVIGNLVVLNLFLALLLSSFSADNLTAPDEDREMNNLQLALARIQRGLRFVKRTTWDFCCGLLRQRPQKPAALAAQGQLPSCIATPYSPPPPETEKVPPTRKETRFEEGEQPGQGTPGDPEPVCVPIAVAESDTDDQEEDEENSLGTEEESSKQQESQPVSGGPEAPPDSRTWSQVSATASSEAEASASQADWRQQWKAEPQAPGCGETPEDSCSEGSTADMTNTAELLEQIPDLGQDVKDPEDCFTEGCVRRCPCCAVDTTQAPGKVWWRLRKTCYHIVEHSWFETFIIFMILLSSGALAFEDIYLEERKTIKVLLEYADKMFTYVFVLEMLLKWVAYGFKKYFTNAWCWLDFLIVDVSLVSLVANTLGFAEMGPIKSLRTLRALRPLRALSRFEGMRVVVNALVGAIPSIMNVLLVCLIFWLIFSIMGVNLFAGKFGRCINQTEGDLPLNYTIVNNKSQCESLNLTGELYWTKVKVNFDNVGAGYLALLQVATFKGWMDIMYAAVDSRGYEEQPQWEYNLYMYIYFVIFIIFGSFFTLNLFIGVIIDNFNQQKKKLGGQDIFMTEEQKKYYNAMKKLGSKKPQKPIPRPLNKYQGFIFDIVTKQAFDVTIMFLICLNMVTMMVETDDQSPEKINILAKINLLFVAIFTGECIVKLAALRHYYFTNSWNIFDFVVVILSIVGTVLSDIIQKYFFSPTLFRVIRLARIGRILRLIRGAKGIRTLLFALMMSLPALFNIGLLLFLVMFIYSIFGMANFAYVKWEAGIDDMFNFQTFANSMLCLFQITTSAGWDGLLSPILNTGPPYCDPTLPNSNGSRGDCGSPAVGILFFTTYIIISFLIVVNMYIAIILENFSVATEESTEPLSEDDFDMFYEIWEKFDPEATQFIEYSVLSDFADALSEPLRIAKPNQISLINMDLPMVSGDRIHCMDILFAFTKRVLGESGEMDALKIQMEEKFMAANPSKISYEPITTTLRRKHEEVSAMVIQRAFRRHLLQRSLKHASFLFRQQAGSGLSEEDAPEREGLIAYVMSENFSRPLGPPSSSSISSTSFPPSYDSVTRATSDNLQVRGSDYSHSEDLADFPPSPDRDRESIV
T12 sequence (Q14721 whole entry): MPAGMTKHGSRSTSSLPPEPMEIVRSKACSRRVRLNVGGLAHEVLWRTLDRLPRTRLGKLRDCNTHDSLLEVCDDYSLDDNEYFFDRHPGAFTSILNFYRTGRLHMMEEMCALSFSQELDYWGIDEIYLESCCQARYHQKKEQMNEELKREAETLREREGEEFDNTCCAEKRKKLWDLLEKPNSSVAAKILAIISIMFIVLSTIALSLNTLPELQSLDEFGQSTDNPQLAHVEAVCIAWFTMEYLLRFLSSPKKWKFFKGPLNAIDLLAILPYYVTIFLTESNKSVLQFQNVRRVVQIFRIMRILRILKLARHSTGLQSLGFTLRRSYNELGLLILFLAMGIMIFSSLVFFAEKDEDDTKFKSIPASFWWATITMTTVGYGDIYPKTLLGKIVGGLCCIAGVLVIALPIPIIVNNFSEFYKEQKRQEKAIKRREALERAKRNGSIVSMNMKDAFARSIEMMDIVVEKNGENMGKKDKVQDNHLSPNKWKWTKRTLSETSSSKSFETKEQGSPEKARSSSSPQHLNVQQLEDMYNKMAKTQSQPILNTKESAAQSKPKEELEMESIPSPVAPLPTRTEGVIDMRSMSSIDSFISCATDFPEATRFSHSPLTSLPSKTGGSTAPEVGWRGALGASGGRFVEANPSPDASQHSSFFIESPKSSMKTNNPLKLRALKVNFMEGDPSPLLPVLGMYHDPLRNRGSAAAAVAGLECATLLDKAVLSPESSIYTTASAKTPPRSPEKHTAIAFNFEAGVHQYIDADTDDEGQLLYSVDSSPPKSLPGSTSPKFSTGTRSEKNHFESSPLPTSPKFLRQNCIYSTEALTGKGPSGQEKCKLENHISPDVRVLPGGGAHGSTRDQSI

12 (GSNFKVEGACSKPCRKYCIDKGARNGKCINGRCHCYY) [compound 12]
Activity of 5HT3a with peptide (percentage of the reference compound) (5HT3a): 97%
Activity of 5HT3a with peptide, expressed as a percentage of the reference compound (5HT3a): 96%
Activity of Nav1.7 with peptide, expressed as a percentage of the reference compound (Nav1.7; [1]): 61%
Activity of Nav1.7 with peptide, expressed as a percentage of the reference compound (Nav1.7; [2]): 66%
Activity of Nav1.7 with peptide (percentage of the reference compound) (Nav1.7; [1]): 74%
Activity of Nav1.7 with peptide (percentage of the reference compound) (Nav1.7; [2]): 63%
Activity of a3b4 with peptide, expressed as a percentage of the reference compound (α3β4; peptide at 0.2 μM): 103%
Activity of a3b4 with peptide (percentage of the reference compound) (α3β4; peptide at 20 μM): 94%
Activity of Kv1.3 with peptide, expressed as a percentage of the reference compound (Kv1.3; peptide at 0.2 μM): 68%
Activity of Kv1.3 with peptide (percentage of the reference compound) (Kv1.3; peptide at 20 μM): 23%
Activity of Kv1.2 with peptide, expressed as a percentage of the reference compound (Kv1.2; peptide at 0.2 μM): 88%
Activity of Kv1.2 with peptide (percentage of the reference compound) (Kv1.2; peptide at 20 μM): 41%
Activity of Kv1.1 with peptide, expressed as a percentage of the reference compound (Kv1.1; peptide at 0.2 μM): 107%
Activity of Kv1.1 with peptide (percentage of the reference compound) (Kv1.1; peptide at 20 μM): 84%
Activity of a4b2 with peptide, expressed as a percentage of the reference compound (α4β2; peptide at 0.2 μM): 97%
Activity of a4b2 with peptide (percentage of the reference compound) (α4β2; peptide at 20 μM): 84%
Activity of Kir2.1 with peptide, expressed as a percentage of the reference compound (Kir2.1; peptide at 0.2 μM): 97%
Activity of Kir2.1 with peptide (percentage of the reference compound) (Kir2.1; peptide at 20 μM): 102%
Activity of hERG with peptide, expressed as a percentage of the reference compound (hERG; peptide at 0.2 μM): 89%
Activity of hERG with peptide (percentage of the reference compound) (hERG; peptide at 20 μM): 81%
Activity of Nav1.5 with peptide, expressed as a percentage of the reference compound (Nav1.5; [3]): 98%
Activity of Nav1.5 with peptide, expressed as a percentage of the reference compound (Nav1.5; [4]): 95%
Activity of Nav1.5 with peptide (percentage of the reference compound) (Nav1.5; [3]): 131%
Activity of Nav1.5 with peptide (percentage of the reference compound) (Nav1.5; [4]): 136%
Activity of TRPA1 with peptide, expressed as a percentage of the reference compound (TRPA1; peptide at 0.2 μM): 129%
Activity of TRPA1 with peptide (percentage of the reference compound) (TRPA1; peptide at 20 μM): 80%
Activity of NR2B with peptide, expressed as a percentage of the reference compound (NR2B; peptide at 0.2 μM): 122%
Activity of NR2B with peptide (percentage of the reference compound) (NR2B; peptide at 20 μM): 83%
Activity of Cav2.1 with peptide, expressed as a percentage of the reference compound (Cav2.1; peptide at 0.2 μM): 109%
Activity of Cav2.1 with peptide (percentage of the reference compound) (Cav2.1; peptide at 20 μM): 104%
Activity of Kv2.1 with peptide, expressed as a percentage of the reference compound (Kv2.1; peptide at 0.2 μM): 104%
Activity of Kv2.1 with peptide (percentage of the reference compound) (Kv2.1; peptide at 20 μM): 113%
Activity of Cav2.2 with peptide, expressed as a percentage of the reference compound (Cav2.2; peptide at 0.2 μM): 115%
Activity of Cav2.2 with peptide (percentage of the reference compound) (Cav2.2; peptide at 20 μM): 115%
Activity of GABA with peptide, expressed as a percentage of the reference compound (GABA; peptide at 0.2 μM): 102%
Activity of GABA with peptide (percentage of the reference compound) (GABA; peptide at 20 μM): 93%
Activity of NR2A with peptide, expressed as a percentage of the reference compound (NR2A; peptide at 0.2 μM): 94%
Activity of NR2A with peptide (percentage of the reference compound) (NR2A; peptide at 20 μM): 91%
Activity of TRPV1 with peptide, expressed as a percentage of the reference compound (TRPV1; peptide at 0.2 μM): 97%
Activity of TRPV1 with peptide (percentage of the reference compound) (TRPV1; peptide at 20 μM): 78%
